± gives the standard error. Variants at the floor of the assay were thinned out.
B1: glmS ribozyme (parent)
chain: AUAAAAGCGCCAGAACUACAGAAAUGUAGUUGACGAGGAGGAGGUUUAUCGAAUUUUCGGCGGAUGCCUCCAAA

Variants of: B1
Test: self-cleavage kobs at 10000 uM GlcN6P; higher = faster cleavage; RNA array
Details: with glucosamine-6-phosphate
Summary of the method: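 Barcoded ribozyme variants were transcribed in situ on sequenced MiSeq chips by E. coli RNA polymerase. At 37 °C, a hybridised Cy3 probe tracked them while glucosamine-6-phosphate (40 μM to 10 mM) in HEPES/KCl/Mg(OAc)2 buffer flowed in and tiles were imaged over ~14 h. Per-tile medians of signals normalised to baseline and to non-cleaving reference variants were fit to one- or two-exponential decays, giving kobs. kcat and KM came from weighted Michaelis–Menten fits across concentrations.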

AUAAAAGCACCAGAACUACAGAAAUGUAGUUGACGAGGAGGAGGUUUAUCGAAUUCUGGGCGGAUGCCUCCAAA was tested. Which “self-cleavage kobs at 10000 uM GlcN6P” value did it give?
The value was less than 1e-05 s⁻¹.

Which “self-cleavage kobs at 10000 uM GlcN6P” value does the source give for AUAAAAGCGCCAGAACUACAGAAAUGUAGUUGACGAGGAAGAGGUUUAUCGAAUUUUCGGCGGAGGCCUCUAAA here?
Its value is 0.0033 ± 0.00061 s⁻¹.

Which “self-cleavage kobs at 10000 uM GlcN6P” value does the source give for AUAAAAACGCCAGAAGUACAGAAAUGUAGUUGACGAGGAGGAGGUUUAUCGUAUUUUCGGAGGAUGCCUCCAAA here?
The value was less than 1e-05 s⁻¹.

Which “self-cleavage kobs at 10000 uM GlcN6P” value does the source give for AUAAAAGCGCCAGAACUACAGAAAUGUAGUUGACGAGGAGGAGGUUUAUCGAAGUUUCGGCGCACGCGUCGAAA here?
The value was 3.78e-05 ± 1.6e-05 s⁻¹.

AUAAAAGCGCCAGAACUACAGAAAUGUAGUUGACGAGGUGGAGGUUUAUCGAAUUUUCGGCGGAUUACUCCAAA was tested. Which “self-cleavage kobs at 10000 uM GlcN6P” value did it give?
Its value is 0.00316 ± 0.00061 s⁻¹.

How did the “self-cleavage kobs at 10000 uM GlcN6P” value turn out when AUAAAAGCGCCAGAACUACAGAAAUGUAGUUGACGAGGAUGAGGUUUAUCGAAUUUUCGGCUGAUGCGUCCAAA was run?
Its value is less than 1e-05 s⁻¹.

Which “self-cleavage kobs at 10000 uM GlcN6P” value does the source give for AUAAAAGGGCCAGAACUACAGAAAUGUAGUUGACGAGGAGGAGGUUUAUCGAAUUUUCGGGGGAUGCCUACAAA here?
Its value is less than 1e-05 s⁻¹.

How did the “self-cleavage kobs at 10000 uM GlcN6P” value turn out when AUAAAAGCACCAGAACUACAGAAAUGUAGCUGACUAGGAGGAGGUUUAUCGAAUGUUCGGCGGAUGCCUCCAAA was run?
Its value is less than 1e-05 s⁻¹.

Which “self-cleavage kobs at 10000 uM GlcN6P” value does the source give for AUAAAAGCGCCAGAACUACAGAAAUGUAGUUGACGAGGAGGAGGUUUAUCGAAUUUACGGCGGGUGCCUCCAAA here?
Its value is 0.000214 ± 4.6e-05 s⁻¹.

With AUAAAAGCGCCGGAACUACAGAAAUGUAGUUGACGAGGAGGGGGUUUAUCGGAUUUUCGGCGGAUGCCUCCAAA as the variant, how does the “self-cleavage kobs at 10000 uM GlcN6P” value read?
Its value is 2.4e-05 ± 1.2e-05 s⁻¹.

Which “self-cleavage kobs at 10000 uM GlcN6P” value does the source give for AUAAAAGCGCCAGAACUACAGAAAUGUAGUUGACGAGGAGGAGGAUUAUCGAAUUAUCGGCGGAUGCCUCCAAA here?
The value was 0.0179 ± 0.0079 s⁻¹.

With AUAAAAGCGCCAGAACUACAGAAAUGUAUUUGACGAGGAGGAGGUUUAUCGAAUUUUCGAAGGAUGCCUCCAAA as the variant, how does the “self-cleavage kobs at 10000 uM GlcN6P” value read?
Its value is less than 1e-05 s⁻¹.

For AUAAAAGCGCCAGAACUACAGAAAUGUAGUGGACGUGGAGGAGGUUUAUCGAAUUUUCGGCGGAUGAGUCCAAA, which “self-cleavage kobs at 10000 uM GlcN6P” value is on record?
The value was 6.42e-05 ± 1.5e-05 s⁻¹.

With AUAAAAGCGCCAGAACUACAGAAAUGUAGUCGACGAGGAGAAGGUUUAUCGAAUUUUCGGCGGAUACCUCCAAA as the variant, how does the “self-cleavage kobs at 10000 uM GlcN6P” value read?
The value was 0.00018 ± 2.8e-05 s⁻¹.

How did the “self-cleavage kobs at 10000 uM GlcN6P” value turn out when AUAAAAGCGCCAGAAAUACAGAAAUGUAGUAGACGAGGAGGAGGUUUAUCGAAUUUUCGGCGGAUGCCUCGAAA was run?
Its value is 4.01e-05 ± 1.1e-05 s⁻¹.

AUAAAAGCGCCAGAACUACAGAAAUGUACUCGACGAGGAGGAGGUUUAUCGAAUUUUCGGCGGAUACCUCCAAA was tested. Which “self-cleavage kobs at 10000 uM GlcN6P” value did it give?
Its value is 0.000105 ± 2.5e-05 s⁻¹.

With AUAAAAGCGCCAUAACUACAGAAAUGUAGUUGACGAGGGGGAGGUUUAUCGAAUUUUCGGCGCAUGCCUCCAAA as the variant, how does the “self-cleavage kobs at 10000 uM GlcN6P” value read?
Its value is less than 1e-05 s⁻¹.

AUAAAAGCGCCAGAACUACAGAAAUGUAGUUCACGAGUAGGCCGUUUAUCGCAUUUUCGGCGGAUGCCUCCAAA was tested. Which “self-cleavage kobs at 10000 uM GlcN6P” value did it give?
The value was less than 1e-05 s⁻¹.

For AUAAAAGCGCCAUAACUACAGAAAUGUAGUUGACGAGGAGGAGUGUUAUCGAAUUUUAGGCGGAUGCCUCGAAA, which “self-cleavage kobs at 10000 uM GlcN6P” value is on record?
The value was less than 1e-05 s⁻¹.

How did the “self-cleavage kobs at 10000 uM GlcN6P” value turn out when AUAAAAUCGCCUGAACUACAGAAAUGUAGUUGACUAGGAGGAGGUUUAUCUAAUUUUCGGCGGAUACCUCCAAA was run?
Its value is less than 1e-05 s⁻¹.

For AUAAAAGCGCCAGAACUACAGAAAUGUAGUUGACGAUGAGGAGGUUUAUCGAAUUUUGGGCGGAUGCCUCCAAA, which “self-cleavage kobs at 10000 uM GlcN6P” value is on record?
The value was less than 1e-05 s⁻¹.

How did the “self-cleavage kobs at 10000 uM GlcN6P” value turn out when AUAAAAGCGCCAGAAAUACAGAAAUGUAGUUGACGAGGAGGAAAUUUUUCGAAUUUUCGGCGGAUGCCUCCAAA was run?
The value was less than 1e-05 s⁻¹.

For AUAAAAGCGCCAGGACUACAGAAAUGUAACUGACGAGGGGGAGGUUUAUCGAAUUUUCGGCGGAUGCCUCCAAA, which “self-cleavage kobs at 10000 uM GlcN6P” value is on record?
The value was 4.63e-05 ± 1.6e-05 s⁻¹.

For AUAAAAGCGCCAGAACUACAGAAAUGUAGUAGACGAGGGGGAGGUUUAUCGAAUCUUCGGCGGAUGCCUCCAAA, which “self-cleavage kobs at 10000 uM GlcN6P” value is on record?
Its value is 0.0297 ± 0.011 s⁻¹.

How did the “self-cleavage kobs at 10000 uM GlcN6P” value turn out when AUAAAAGCACCAGAAGUACAGAAAUGUAGUUGACGAGGAGGAGGUUUAUCAAAUUUUCGUCGGAUGCCUCCAAA was run?
Its value is less than 1e-05 s⁻¹.

For AUAAAAGCGCCAGAACUACAGAAAUGUAGUUGACGAGGAGGAAGUUUAUCGAUUUUUCCUCGGAUGCCUCCAAA, which “self-cleavage kobs at 10000 uM GlcN6P” value is on record?
The value was less than 1e-05 s⁻¹.

Which “self-cleavage kobs at 10000 uM GlcN6P” value does the source give for AUAAAAGCGCCAGUACUACAGAAAUGUAGUUGACGAGGAGGAGGUUUAUCGCAUUUACGGCGGAUGCCUCUAAA here?
The value was less than 1e-05 s⁻¹.

For AUAAAAGCGCCAGAACUACAGAAAUGUAUUUGACGAGGAGGAGGUGUAUCGAAUUUUCGGCGGAUGCUUCCAAA, which “self-cleavage kobs at 10000 uM GlcN6P” value is on record?
Its value is 0.000229 ± 4.1e-05 s⁻¹.

AUAAAAACGCCAGAACUACAGAAAUGUAGGUGACGAGGAGAAGGUUUAUCGAAUUUUCGGCGGAUGCCUACAAA was tested. Which “self-cleavage kobs at 10000 uM GlcN6P” value did it give?
The value was less than 1e-05 s⁻¹.

With AUAAAAGCGCCAGAACUACAGAAAUGUAGUUGACCAGGAGGAGGUUUAUCUAAUUUUUGGGGGGAGCCUCCAAA as the variant, how does the “self-cleavage kobs at 10000 uM GlcN6P” value read?
Its value is less than 1e-05 s⁻¹.

Which “self-cleavage kobs at 10000 uM GlcN6P” value does the source give for AUAAAAGCGCCAGAACUACAGAAAUGUAGUUGACGAGGGGGAGGUUUAGCGAAUUUUCGGCGGAUGCCUCCAAA here?
Its value is 0.000904 ± 0.00021 s⁻¹.

How did the “self-cleavage kobs at 10000 uM GlcN6P” value turn out when AUAAAAGCGCCCGAAUUACAGAAAUGUAGUUGACGAGGAGGAGGUUUAUCGACUUUUCGGCGAAUGCCUCCAAA was run?
The value was less than 1e-05 s⁻¹.

How did the “self-cleavage kobs at 10000 uM GlcN6P” value turn out when AUAAAAGCGCCAGAACUACAGAAAUGUAGUUGACGAGGAGGAGGUUUAUCCAAGUUUCGGCGGAUGCCUACAAA was run?
Its value is less than 1e-05 s⁻¹.

For AUAAAAGCGCCAGAACUACAGAAAUGUAGUUGACGAGGAGGAGGUUUAUCGAAUUUUCCGCGGAUACCUCCAAA, which “self-cleavage kobs at 10000 uM GlcN6P” value is on record?
Its value is less than 1e-05 s⁻¹.

How did the “self-cleavage kobs at 10000 uM GlcN6P” value turn out when AUAAAAGCGCCAGAACUACAGAAAUGUAGUUGACGAGGAGGAGGUUUAUCGAAGUUUCGGAGGAUGCCUCCAAA was run?
Its value is less than 1e-05 s⁻¹.

How did the “self-cleavage kobs at 10000 uM GlcN6P” value turn out when AUAAAAGCGCCAGAACUACAGAAAUGUAGUUGACGAGGAGGAGGUUUCUCGAAUUUUAGGUGGAUGCCUCCAAA was run?
The value was less than 1e-05 s⁻¹.

AUAAAAGCGCCAGAACUACAGAAAUGUAGUUGACGAGGAGUAGGUUUAUCGAAUUUUCGGCGGAUGCCACCAAA was tested. Which “self-cleavage kobs at 10000 uM GlcN6P” value did it give?
The value was 3.54e-05 ± 1.5e-05 s⁻¹.
